The text below walks through data of publication doi:10.1101/681007 (bioRxiv, 2019).

Series [1] addresses Human TAp63α (aa10-616, TEV site inserted at aa570 and V599M) (human). In words: SEC.
The series “native gel or EMSA” deals with the molecule itself. In words: native gel or EMSA.

Broadly, the stoichiometry N is the number of molecules, sites or subunits per partner or assembly. “Human TAp63α (aa10-616, TEV site inserted at aa570 and V599M) (natural protein)”: the stoichiometry N in series [1] turned out to be 2.

B1: TAp63α, endogenous in mouse ovaries, untreated (closed dimeric form) (natural protein, mouse (endogenous in ovaries), UniProt O88898-1 40-680, looked up)
chain: MSQSTQTSEFLSPEVFQHIWDFLEQPICSVQPIELNFVDEPSENGATNKIEISMDCIRMQDSDLSDPMWPQYTNLGLLNSMDQQIQNGSSSTSPYNTDHAQNSVTAPSPYAQPSSTFDALSPSPAIPSNTDYPGPHSFDVSFQQSSTAKSATWTYSTELKKLYCQIAKTCPIQIKVMTPPPQGAVIRAMPVYKKAEHVTEVVKRCPNHELSREFNEGQIAPPSHLIRVEGNSHAQYVEDPITGRQSVLVPYEPPQVGTEFTTVLYNFMCNSSCVGGMNRRPILIIVTLETRDGQVLGRRCFEARICACPGRDRKADEDSIRKQQVSDSAKNGDGTKRPFRQNTHGIQMTSIKKRRSPDDELLYLPVRGRETYEMLLKIKESLELMQYLPQHTIETYRQQQQQQHQHLLQKQTSMQSQSSYGNSSPPLNKMNSMNKLPSVSQLINPQQRNALTPTTMPEGMGANIPMMGTHMPMAGDMNGLSPTQALPPPLSMPSTSHCTPPPPYPTDCSIVSFLARLGCSSCLDYFTTQGLTTIYQIEHYSMDDLASLKIPEQFRHAIWKGILDHRQLHDFSSPPHLLRTPSGASTVSVGSSETRGERVIDAVRFTLRQTISFPPRDEWNDFNFDMDSRRNKQQRIKEEGE
With B1, the “stoichiometry N” value in “native gel or EMSA” was 2.

B2: TAp63α, endogenous in mouse ovaries, phosphorylated after 0.5 Gy γ-irradiation (active tetrameric form) (natural protein, mouse (endogenous in ovaries), UniProt O88898-1 40-680, looked up)
chain: B1 chain
modifications: phosphorylated (phosphorylation dependent mobility shift on SDS-PAGE); the sites were not determined in this experiment
As for B2, the “stoichiometry N” value in the series “native gel or EMSA” worked out at 4.
